In PMC3280358:
Blank lines part the entries; values can stand above or below the substance they belong to.

Legend:
[1] = target: Nbs1 1-382 (UniProt O60934); experiment: ITC
[2] = target: Nbs1 (UniProt O60934); experiment: far-western with FLAG-Nbs1; conditions: reference: nonphosphorylated NTD; sites T13

KD ([1]; reference: nonphosphorylated peptide, sites T13): gained; reference no detectable binding
Substance: Rad51 NTD peptide (from UniProt Q06609) pT13 peptide

KD ([1]; reference: pS14 peptide, sites T13): gained; reference no detectable binding
KD ([1]; reference: pT13 peptide, sites S14): weaker; reference around 20
Substance: Rad51 NTD peptide (from UniProt Q06609) pT13/pS14 peptide

binding against the reference [2]: gained
Substance: Rad51 NTD, 1-86 (from UniProt Q06609) CK2-phosphorylated NTD
